The target in assay [1] is Aβ(1–40) amyloid-like fibrils. In words: ELISA; EuLISA: amyloid-like fibrils (0.83 µM) adsorbed to microplate wells overnight at 37°C, blocked with 1% BSA in PBS; Fcp5, biotinylated-p5 or Fc2a titrated in PBS with 1% BSA and 0.05% tween 20; detected with biotinylated goat anti-mouse IgG and europium-streptavidin; estimated EC50.
In assay [2] the target is rVλ6Wil amyloid-like fibrils. Described as above.
In assay [3] the target is T1, IAPP amyloid-like fibrils (human, UniProt P10997 34-70).
T1 construct: islet amyloid polypeptide, the mature hormone; Fibrillar state; also called IAPP fibrils; islet amyloid polypeptide fibrils; source: bought: Anaspec (90% pure); fibrils prepared in sterile PBS
T1 peptide (looked up): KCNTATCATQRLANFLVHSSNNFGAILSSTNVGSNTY
The description is as above. The following applies: both partners purified.

Assay [4] deals with rVλ6Wil amyloid-like fibrils. As to the kind of experiment: SPR; BIAcore X, CM5 chip coated with rVλ6Wil fibrils (channel 1) and rVλ6Wil monomer (channel 2, subtracted as control); Fcp5 2 µg/mL or p5 0.2 µg/mL, 70 µL, 20 µL/min, 200 s binding and 200 s dissociation; two-state binding algorithm with conformational change.

The values that follow come from article PMC5591422, “A Peptide-Fc Opsonin with Pan-Amyloid Reactivity” (Frontiers in Immunology, 2017).

Ends that are not written are not given here.

B1: Fcp5 (peptide p5-murine IgG2a Fc fusion) (Fc fusion)
chain: VTPTVGGGYSKAQKAQAKQAKQAQKAQKAQAKQAKQVTPTV
modifications: not fully specified (C-terminus); also: fused to murine IgG2a Fc, glycosylated, site not given here
notes: 5-amino acid spacer flanking p5; peptide p5, non-natural 31-amino acid polybasic peptide; Disulfide-linked dimer by SDS-PAGE (theoretical monomer Mw 31,553); Cloned into the Nco I and Bgl II sites of pFUSE-mIgG2A-Fc in frame with the IL-2 secretory leader and the Fc; also called peptide p5-Fc fusion construct; source: HEK293T/17, transient transfection, purified from culture supernatant (protein …)
By EC50 is commonly meant the concentration giving half of the maximal effect. In general, Kd refers to the equilibrium constant for the complex coming apart. Low readings indicate higher affinity, high ones lower affinity. Take B1: the EC50 in assay [1] was 4 nM; in assay [2], 1 nM; in assay [3] it was around 15 nM. Also, in assay [4], the Kd worked out at 3 nM. In assay [4], this molecule displayed a signal deflection of 200 au.

B2: peptide p5 (peptide)
peptide: GGGYSKAQKAQAKQAKQAQKAQKAQAKQAKQ
modifications: also: biotinylated in EuLISA, site not given here, 125I-labelled in pulldown assays
notes: non-natural 31-amino acid peptide with eight lysines in a heptad repeat; also called biotinylated-p5; source: synthetic peptide (Anaspec), purified by RP-HPLC
Regarding B2, the EC50 in assay [1] is 230 nM; in assay [2] it was 14 nM; in assay [3], around 200 nM. Further, the Kd in assay [4] was 5 nM. The molecule also came in with a signal deflection in assay [4] of 100 au.
